Data as given in article PMC12661925 (Structure (London, England : 1993), 2025).
Like-named read-outs stand apart in the source and are kept apart here.

B1: Figure 3 foreign DNA, PAM on one strand (34/32 nt) (dsDNA)
DNA 1: AAAAACCTGGACTACTACAACCTTCGCTTTTTGG
DNA 2: TTTTTGCGAAGGTTGTAGTAGTCCAGGAAAAA
B2: Figure 4 foreign DNA with PAM (34/34 nt) (dsDNA)
DNA 1: TACATGCTCTAGCAAAACGACTTGCACAACGAGG
DNA 2: CCATTAAGTGCAAGTCGTTTTGCTAGAGCTACAT
B3: Cas1 from the PA14 strain of Pseudomonas aeruginosa (type I-F), StrepII-tagged (enzyme, Pseudomonas aeruginosa (strain PA14))
chain: MDDISPSELKTILHSKRANLYYLQHCRVLVNGGRVEYVTDEGRHSHYWNIPIANTTSLLLGTGTSITQAAMRELARAGVLVGFCGGGGTPLFSANEVDVEVSWLTPQSEYRPTEYLQRWVGFWFDEEKRLVAARHFQRARLERIRHSWLEDRVLRDAGFAVDATALAVAVEDSARALEQAPNHEHLLTEEARLSKRLFKLAAQATRYGEFVRAKRGSGGDPANRFLDHGNYLAYGLAATATWVLGIPHGLAVLHGKTRRGGLVFDVADLIKDSLILPQAFLSAMRGDEEQDFRQACLDNLSRAQALDFMIDTLKDVAQRSTVSA
B4: Figures 4 and 5 foreign DNA without PAM (32/32 nt) (dsDNA)
DNA 1: TACATGCTCTAGCAAAACGACTTGCACAACGA
DNA 2: ATTAAGTGCAAGTCGTTTTGCTAGAGCTACAT
B5: Cas2/3 fusion protein from the PA14 strain of Pseudomonas aeruginosa (type I-F), untagged (enzyme, Pseudomonas aeruginosa (strain PA14))
chain: MNILLVSQCEKRALSETRRILDQFAERRGERTWQTPITQAGLDTLRRLLKKSARRNTAVACHWIRGRDHSELLWIVGDASRFNAQGAVPTNRTCRDILRKEDENDWHSAEDIRLLTVMAALFHDIGKASQAFQAKLRNRGKPMADAYRHEWVSLRLFEAFVGPGSSDEDWLRRLADKRETGDAWLSQLARDDRQSAPPGPFQKSRLPPLAQAVGWLIVSHHRLPNGDHRGSASLARLPAPIQSQWCGARDADAKEKAACWQFPHGLPFASAHWRARTALCAQSMLERPGLLARGPALLHDSYVMHVSRLILMLADHHYSSLPADSRLGDPNFPLHANTDRDSGKLKQRLDEHLLGVALHSRKLAGTLPRLERQLPRLARHKGFTRRVEQPRFRWQDKAYDCAMACREQAMEHGFFGLNLASTGCGKTLANGRILYALADPQRGARFSIALGLRSLTLQTGQAYRERLGLGDDDLAILVGGSAARELFEKQQERLERSGSESAQELLAENSHVHFAGTLEDGPLREWLGRNSAGNRLLQAPILACTIDHLMPASESLRGGHQIAPLLRLMTSDLVLDEVDDFDIDDLPALSRLVHWAGLFGSRVLLSSATLPPALVQGLFEAYRSGREIFQRHRGAPGRATEIRCAWFDEFSSQSSAHGAVTSFSEAHATFVAQRLAKLEQLPPRRQAQLCTVHAAGEARPALCRELAGQMNTWMADLHRCHHTEHQGRRISFGLLRLANIEPLIELAQAILAQGAPEGLHVHLCVYHSRHPLLVRSAIERQLDELLKRSDDDAAALFARPTLAKALQASTERDHLFVVLASPVAEVGRDHDYDWAIVEPSSMRSIIQLAGRIRRHRSGFSGEANLYLLSRNIRSLEGQNPAFQRPGFETPDFPLDSHDLHDLLDPALLARIDASPRIVEPFPLFPRSRLVDLEHRRLRALMLADDPPSSLLGVPLWWQTPASLSGALQTSQPFRAGAKERCYALLPDEDDEERLHFSRYEEGTWSNQDNLLRNLDLTYGPRIQTWGTVNYREELVAMAGREDLDLRQCAMRYGEVRLRENTQGWSYHPYLGFKKYN

Experiments:
[1] = target: T1, Cas1-2/3 integrase (StrepII-Cas1 + Cas2/3 fusion) (Pseudomonas aeruginosa PA14, UniProt Q02ML7;Q02ML8 1-324;1-1076); test: cryo-EM
T1 sequence 1: B3 chain
T1 sequence 2: B5 chain

[2] = target: T1, Cas1-2/3 integrase (StrepII-Cas1 + …); test: cryo-EM; remark: listed apart in the source
cryo-EM structure = target: the molecule itself; test: cryo-EM structure

Binder | binding result [2] | binding result (cryo-EM structure) | other results
B1 |  |  | binding result [1]: binds
B2 | binds |  | 
B3 |  | binds | 
B4 | binds |  | 
B5 |  | binds | 
